Laboratory results from patent US20080274096.
Entries after “also recorded” stand apart in the source; their conditions may differ.

Key:
[1] = molecular target: Amyloid β1-40 peptide (Bachem)
[2] = molecular target: amyloid β peptide1-40 in guinea pig plasma, Q60495
[3] = molecular target: amyloid β peptide1-42 in guinea pig plasma, Q60495

B1: Recombinant human Neprilysin (R&D Systems) (protein)
chain: YDDGICKSSDCIKSAARLIQNMDATTEPCTDFFKYACGGWLKRNVIPETSSRYGNFDILRDELEVVLKDVLQEPKTEDIVAVQKAKALYRSCINESAIDSRGGEPLLKLLPDIYGWPVATENWEQKYGASWTAEKAIAQLNSKYGKKVLINLFVGTDDKNSVNHVIHIDQPRLGLPSRDYYECTGIYKEACTAYVDFMISVARLIRQEERLPIDENQLALEMNKVMELEKEIANATAKPEDRNDPMLLYNKMTLAQIQNNFSLEINGKPFSWLNFTNEIMSTVNISITNEEDVVVYAPEYLTKLKPILTKYSARDLQNLMSWRFIMDLVSSLSRTYKESRNAFRKALYGTTSETATWRRCANYVNGNMENAVGRLYVEAAFAGESKHVVEDLIAQIREVFIQTLDDLTWMDAETKKRAEEKALAIKERIGYPDDIVSNDNKLNNEYLELNYKEDEYFENIIQNLKFSQSKQLKKLREKVDKDEWISGAAVVNAFYSSGRNQIVFPAGILQPPFFSAQQSNSLNYGGIGMVIGHEITHGFDDNGRNFNKDGDLVDWWTQQSASNFKEQSQCMVYQYGNFSWDLAGGQHLNGINTLGENIADNGGLGQAYRAYQNYIKKNGEEKLLPGLDLNHKQLFFLNFAQVWCGTYRPEYAVNSIKTDVHSPGNFRIIGTLQNSAEFSEAFHCRKNSYMNPEKKCRVW
With B1 the “Amyloid β1-40 peptide degradation (percentage of peptide left, electrochemiluminescence immunoassay)” value [1] was “degraded 88% of Amyloid β1-40 peptide (1 nM) after 3 hours incubation at 37 °C”, the “degradation of Aβ1-40 in guinea pig plasma (ELISA)” value [2] was “Neprilysin degrades Aβ1-40 and Aβ1-42 in a time-dependent manner; also recorded: Neprilysin degrades Aβ1-40 in a dose dependent manner” and the “degradation of Aβ1-42 in guinea pig plasma (ELISA)” value [3] was “Neprilysin degrades Aβ1-40 and Aβ1-42 in a time-dependent manner”.
